# ± gives the uncertainty stated by the source.
# Assay: abundance fitness (aPCA) (normalised: wild type 0, dead -1); higher = more abundant; growth selection in yeast, the domain comes from the species named
# Conditions: Homo sapiens
row,Substance,abundance fitness
1,"Scaffold attachment factor B2 A40D, Q14151",-0.409 ± 0.25
2,"Scaffold attachment factor B2 A40E, Q14151",0.022 ± 0.097
3,"Scaffold attachment factor B2 A40G, Q14151",-0.233 ± 0.1
4,"Scaffold attachment factor B2 A40L, Q14151",-0.292 ± 0.12
5,"Scaffold attachment factor B2 A40M, Q14151",0.613 ± 0.36
6,"Scaffold attachment factor B2 A40P, Q14151",-0.433 ± 0.22
7,"Scaffold attachment factor B2 A40R, Q14151",-0.368 ± 0.13
8,"Scaffold attachment factor B2 A40S, Q14151",-0.168 ± 0.12
9,"Scaffold attachment factor B2 A40T, Q14151",-0.561 ± 0.17
10,"Scaffold attachment factor B2 A40W, Q14151",-0.135 ± 0.31
11,"Scaffold attachment factor B2 A40Y, Q14151",-0.387 ± 0.11
12,"Scaffold attachment factor B2 A63C, Q14151",-0.235 ± 0.19
13,"Scaffold attachment factor B2 A63E, Q14151",-0.325 ± 0.12
14,"Scaffold attachment factor B2 A63F, Q14151",-0.628 ± 0.18
15,"Scaffold attachment factor B2 A63G, Q14151",-0.324 ± 0.083
16,"Scaffold attachment factor B2 A63I, Q14151",-0.546 ± 0.16
17,"Scaffold attachment factor B2 A63K, Q14151",-0.695 ± 0.15
18,"Scaffold attachment factor B2 A63L, Q14151",-0.984 ± 0.16
19,"Scaffold attachment factor B2 A63M, Q14151",-0.649 ± 0.13
20,"Scaffold attachment factor B2 A63P, Q14151",-0.608 ± 0.13
21,"Scaffold attachment factor B2 A63Q, Q14151",-0.292 ± 0.11
22,"Scaffold attachment factor B2 A63R, Q14151",-0.433 ± 0.089

row,Substance,abundance fitness
1,"Scaffold attachment factor B2 A63S, Q14151",-0.367 ± 0.13
2,"Scaffold attachment factor B2 A63T, Q14151",-0.44 ± 0.13
3,"Scaffold attachment factor B2 A63V, Q14151",-0.175 ± 0.11
4,"Scaffold attachment factor B2 A63W, Q14151",-0.63 ± 0.11
5,"Scaffold attachment factor B2 D37A, Q14151",-0.513 ± 0.091
6,"Scaffold attachment factor B2 D37C, Q14151",-0.548 ± 0.12
7,"Scaffold attachment factor B2 D37E, Q14151",-0.012 ± 0.095
8,"Scaffold attachment factor B2 D37F, Q14151",-0.737 ± 0.12
9,"Scaffold attachment factor B2 D37G, Q14151",-0.602 ± 0.076
10,"Scaffold attachment factor B2 D37H, Q14151",-0.865 ± 0.16
11,"Scaffold attachment factor B2 D37K, Q14151",-1.19 ± 0.18
12,"Scaffold attachment factor B2 D37L, Q14151",-0.9 ± 0.14
13,"Scaffold attachment factor B2 D37M, Q14151",-1 ± 0.21
14,"Scaffold attachment factor B2 D37N, Q14151",-0.883 ± 0.23
15,"Scaffold attachment factor B2 D37P, Q14151",-0.463 ± 0.14
16,"Scaffold attachment factor B2 D37Q, Q14151",-0.514 ± 0.11
17,"Scaffold attachment factor B2 D37R, Q14151",-1.05 ± 0.083
18,"Scaffold attachment factor B2 D37S, Q14151",-0.556 ± 0.1
19,"Scaffold attachment factor B2 D37T, Q14151",-0.597 ± 0.089
20,"Scaffold attachment factor B2 D37V, Q14151",-0.651 ± 0.088
21,"Scaffold attachment factor B2 D37W, Q14151",-0.495 ± 0.086
22,"Scaffold attachment factor B2 D37Y, Q14151",-0.797 ± 0.16

row,Substance,abundance fitness
1,"Scaffold attachment factor B2 D48A, Q14151",-0.181 ± 0.085
2,"Scaffold attachment factor B2 D48C, Q14151",-0.188 ± 0.11
3,"Scaffold attachment factor B2 D48F, Q14151",-0.338 ± 0.36
4,"Scaffold attachment factor B2 D48G, Q14151",-0.284 ± 0.077
5,"Scaffold attachment factor B2 D48I, Q14151",-0.555 ± 0.13
6,"Scaffold attachment factor B2 D48K, Q14151",-0.358 ± 0.084
7,"Scaffold attachment factor B2 D48L, Q14151",-0.513 ± 0.094
8,"Scaffold attachment factor B2 D48M, Q14151",-0.545 ± 0.14
9,"Scaffold attachment factor B2 D48P, Q14151",0.03 ± 0.089
10,"Scaffold attachment factor B2 D48Q, Q14151",-0.329 ± 0.11
11,"Scaffold attachment factor B2 D48R, Q14151",-0.625 ± 0.082
12,"Scaffold attachment factor B2 D48S, Q14151",-0.214 ± 0.086
13,"Scaffold attachment factor B2 D48T, Q14151",-0.526 ± 0.083
14,"Scaffold attachment factor B2 D48W, Q14151",-0.757 ± 0.087
15,"Scaffold attachment factor B2 D48Y, Q14151",-0.744 ± 0.14
16,"Scaffold attachment factor B2 D70A, Q14151",0.141 ± 0.14
17,"Scaffold attachment factor B2 D70C, Q14151",-0.037 ± 0.12
18,"Scaffold attachment factor B2 D70E, Q14151",0.125 ± 0.12
19,"Scaffold attachment factor B2 D70F, Q14151",-0.431 ± 0.15
20,"Scaffold attachment factor B2 D70G, Q14151",-0.036 ± 0.11
21,"Scaffold attachment factor B2 D70H, Q14151",-0.197 ± 0.13
22,"Scaffold attachment factor B2 D70I, Q14151",-0.258 ± 0.17

row,Substance,abundance fitness
1,"Scaffold attachment factor B2 D70K, Q14151",-0.337 ± 0.29
2,"Scaffold attachment factor B2 D70P, Q14151",0.014 ± 0.13
3,"Scaffold attachment factor B2 D70S, Q14151",-0.094 ± 0.15
4,"Scaffold attachment factor B2 D70V, Q14151",-0.283 ± 0.14
5,"Scaffold attachment factor B2 D70W, Q14151",-0.576 ± 0.16
6,"Scaffold attachment factor B2 E32A, Q14151",-0.445 ± 0.11
7,"Scaffold attachment factor B2 E32C, Q14151",-0.33 ± 0.12
8,"Scaffold attachment factor B2 E32D, Q14151",0.003 ± 0.1
9,"Scaffold attachment factor B2 E32F, Q14151",-0.873 ± 0.27
10,"Scaffold attachment factor B2 E32H, Q14151",-0.52 ± 0.23
11,"Scaffold attachment factor B2 E32I, Q14151",-0.657 ± 0.14
12,"Scaffold attachment factor B2 E32K, Q14151",-0.355 ± 0.23
13,"Scaffold attachment factor B2 E32L, Q14151",-0.543 ± 0.1
14,"Scaffold attachment factor B2 E32M, Q14151",-0.554 ± 0.093
15,"Scaffold attachment factor B2 E32N, Q14151",0.078 ± 0.35
16,"Scaffold attachment factor B2 E32P, Q14151",-0.474 ± 0.12
17,"Scaffold attachment factor B2 E32Q, Q14151",-0.135 ± 0.087
18,"Scaffold attachment factor B2 E32R, Q14151",-0.431 ± 0.087
19,"Scaffold attachment factor B2 E32S, Q14151",-0.36 ± 0.093
20,"Scaffold attachment factor B2 E32T, Q14151",-0.07 ± 0.13
21,"Scaffold attachment factor B2 E32V, Q14151",-0.393 ± 0.077
22,"Scaffold attachment factor B2 E32W, Q14151",-0.621 ± 0.09

row,Substance,abundance fitness
1,"Scaffold attachment factor B2 E41L, Q14151",-0.876 ± 0.35
2,"Scaffold attachment factor B2 E41R, Q14151",-1.09 ± 0.38
3,"Scaffold attachment factor B2 E41W, Q14151",-1.02 ± 0.23
4,"Scaffold attachment factor B2 E58A, Q14151",-0.129 ± 0.085
5,"Scaffold attachment factor B2 E58C, Q14151",-0.364 ± 0.12
6,"Scaffold attachment factor B2 E58D, Q14151",0.001 ± 0.12
7,"Scaffold attachment factor B2 E58F, Q14151",-0.769 ± 0.11
8,"Scaffold attachment factor B2 E58G, Q14151",-0.26 ± 0.077
9,"Scaffold attachment factor B2 E58H, Q14151",-0.338 ± 0.15
10,"Scaffold attachment factor B2 E58I, Q14151",-0.576 ± 0.11
11,"Scaffold attachment factor B2 E58K, Q14151",-0.44 ± 0.17
12,"Scaffold attachment factor B2 E58L, Q14151",-0.439 ± 0.077
13,"Scaffold attachment factor B2 E58M, Q14151",-0.162 ± 0.11
14,"Scaffold attachment factor B2 E58N, Q14151",-0.201 ± 0.099
15,"Scaffold attachment factor B2 E58P, Q14151",-0.612 ± 0.09
16,"Scaffold attachment factor B2 E58Q, Q14151",-0.319 ± 0.11
17,"Scaffold attachment factor B2 E58R, Q14151",-0.247 ± 0.072
18,"Scaffold attachment factor B2 E58T, Q14151",-0.203 ± 0.091
19,"Scaffold attachment factor B2 E58V, Q14151",-0.616 ± 0.076
20,"Scaffold attachment factor B2 E66A, Q14151",-0.092 ± 0.091
21,"Scaffold attachment factor B2 E66C, Q14151",-0.157 ± 0.13
22,"Scaffold attachment factor B2 E66D, Q14151",-0.042 ± 0.13

# — the Human Domainome abundance scans (Beltran et al. 2025)
